# Where a chain is given by its changes, count along the chain named.
# B1: 3C6 (antibody, V domains shown)
# VH: EVQLQQSGPELVKPGASVKIPCKASGYTFTDYNMDWVKQSHGESLEWIGDIYPNNGGTIYNQKFKDKATLTVDKSSSTAYMELRSLTSEDNAVYYCARKTGTGFDYWGQGTTLTVSS
# VL: QIVLSQSPAILSASPGEKVTMTCRARSSVIYMHWYQQKPGSSPKPWIYATFNLASGVPARFSGSGSGTSYSLTISRVEAEDAATYYCQQWSSNPPTFGSGTKLEIKR
# notes: Entries as printed include a leader and part of the constant region; also called anti-TSG-6 antibody 3C6
# B2: anti-TSG-6 antibody of SEQ ID NO: 1 and SEQ ID NO: 2 (first entry of Table 1, clone name not printed) (antibody, IgG1, V domains shown)
# VH: QVRLQQSGAELAKPGASVKLSCKASGYTFTSYWMHWVKQRPGQGLEWIGYIIPSSGYTKNKQNFKDKATLTADKSSSTAYMQLSNLTYEDSAVYSCARSDGSYPYYFDYWGQGTTLTVSS
# VL: ENVLTQSPAIMSASPGEKVTMTCSASSSVSYMHWYQQKSSTSPKLWIYDTSKLASGVPGRFSGSGSGNSYSLTISSMEAEDVATYYCFQGSGYPLTFGSGTKLEIKR
# B3: 3E1 (antibody, V domains shown)
# VH: QVQLQQSGAELAKPGASVRLSCQASGYTFTSYWMHWVKQRPRQGLEWIGYIIPSSGYTKCHQKFKDKATLTADKSSSTAYMQLSSLTYEDSAVYYCARSTSGYPYYFDSWGQGTTLTVSS
# VL: B2 VL with K18R, S26T, Y31F, G92W, S99A, I105L
# notes: Entries as printed include a leader and part of the constant region
# B4: 5A5 (antibody, V domains shown)
# VH: B3 VH with S31T, T58S, S77N, Y80S, S109Y
# VL: B2 VL with S26T, G92W, S99A, I105L
# notes: as for B3
# B5: 5B4 (antibody, V domains shown)
# VH: QVQLQQPGAELVKPGASVKLSCKASDYTFTNYWMHWVKQRPGRGLEWIGRIDPSSGGAKYNEKFKSKATLTVDKPSSTAYMEFSSLTSEDSAVYYCVRSRYDYDGWFAYWGLGTLVTVSA
# VL: DIVMTQAAPSVPVTPGESVSISCRSSKSLLHSNGNTYLYWFLQRPGQSPQLLIYRMSNLASGVPDRFSGSGSGTAFTLRISRVEAEDVGVYYCMQHLEYPFTFGGGTKLEIKR
# notes: Its printed constant part differs from that of the other IgG1 entries; Entries as printed include a leader and part of the constant region
# B6: 5D9 (antibody, V domains shown)
# VH: QVQLQQSGAELARPGASVKLSCKASDDTFINYGINWVKQRTGQGLEWIGETFPSNGNTFYNEKFKGKATLTADRSSSTTYMELRSLTSEDAAVYFCARHSNLPYFDHWGQGSTLTVSS
# VL: DIVMTQSPSSLSVSAGEKVTMSCKSSQSLLNSGNQKNYLAWYQQKPGQPPKLLIYGASTRESGVPERFTGSGSGTDFTLTISSVQAEDLAVYYCQNDHSYPFTFGGGTNLEIKR
# notes: as for B3
# B7: 4F1 (antibody, V domains shown)
# VH: EVKLVESGGGLVQPGGSLSLSCAASGFTFTDYYMSWVRQPPGKALEWLGFIRHKAKGYTAEYSASVKGRFTISRDNSQSILYLQMNALRAEDSATYYCARLYYYGSPHWYFDVWGTGTTVTVSS
# VL: QIVLTQSPAIMSASPGEKVTMTCSASSSVSYMHWYQQKSGTSPKRWIYDTSKLASGVPARFSGSGSGTSYSLTISSMEAEDAATYYCQQWSSNPPTFGSGTELEIKR
# notes: as for B3
# B8: 4E4 (antibody, V domains shown)
# VH: QVQLQQPGAELVKPGASVKLSCKASGYTFTSYWMHWVKQRPGQGLEWIGMIHPNSGSTNYNEKFKNKATLTVDKSSSTAYMQLSSLTSEDSAVYYCAPRMFDDYDDYWGQGTTLTVSS
# VL: QIVLTQSPAIMSASLGERVTMTCTASSSVSSSYLHWYQQKPGSSPKLWIYSTSNLASGVPVRFSGSGSGTSYSLTISRMEAEDAATYYCHHYHRSPYTFGGGTKLEIKR
# notes: as for B3
# B9: 1A9 (antibody, V domains shown)
# VH: EVQLQQSGPELVKPGASVKISCKASGYTFTDYYMNWVKQSHEKSLEWIGDINPNNGGTSYNQKFMGKATLTVDKSSRTAYMELRSLTSEDSTVYYCARWGIYDRFTYWGQGTLVSVSA
# VL: DIKMTQSPSSMYASLGERVTIACKASQDINSFLSWFQQKPGKSPKTLIYRANRLVDGVPSRFSGSGSGQDYSLTISSLEYEDMGIYYCLQYDEFPLTFGAGTKLELKR
# notes: as for B3
# B10: 1D7 (antibody, V domains shown)
# VH: B9 VH with E42G, S59T, M65K, R77S, T92A, Y102F, L113V, S115T
# VL: B9 VL with L15R, A22T
# notes: as for B3
# B11: 3E4 (antibody, V domains shown)
# VH: QVQLQQPGAELVKPGASVKLSCKASGYTFTSQWMHWVKQRPGQGLEWIGMIHPNSGSTNNNEKFKSKATLTVDKSSSTAYMQLSSLTSEDSAVYYCTRWAMDYWGQGTSVTASS
# VL: DVVMTQTPLSLPVSLGDLASISCRSSQSLVHSNGNTYLHWYLQKPGQSPKLLIFKVSNRFSGVPDRFSGSGSGTDFTLKISRVEAEDLGVYFCSQSTHVPWTFGGGTKLEIKR
# notes: as for B3
# Target: T1, Recombinant mouse TSG-6 (R&D Biosystems, catalog #2326-TS) (mouse, UniProt O08859 18-275)
# T1 construct: Bought protein, used KLH-coupled as the immunogen; also called mTSG-6
# T1 sequence (O08859 18-275 limits assumed): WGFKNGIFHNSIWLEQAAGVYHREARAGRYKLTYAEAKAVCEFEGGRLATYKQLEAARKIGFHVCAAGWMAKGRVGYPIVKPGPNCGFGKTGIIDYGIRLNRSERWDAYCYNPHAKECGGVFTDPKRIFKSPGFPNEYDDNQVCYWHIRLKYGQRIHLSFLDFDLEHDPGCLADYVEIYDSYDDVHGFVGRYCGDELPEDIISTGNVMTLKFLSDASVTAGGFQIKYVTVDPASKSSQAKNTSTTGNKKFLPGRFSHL
# Test: hybridoma raised against mouse TSG-6; clone selection by ELISA
# Protocol: (§1) Mouse antibodies directed against mouse TSG-6 protein (mTSG-6) were generated using conventional mouse monoclonal antibody techniques. Briefly, mice (strain SJL/J) were inoculated with KLH-coupled recombinant mouse TSG-6 (R&D Biosystems, catalog #2326-TS). After boosting, antibody titers were determined by ELISA, using a non-relevant His6-tagged protein as a control. Mice selected for fusion were sacrificed and hybridoma fusion was performed using the P3X63Ag8.653 murine myeloma cell line as a fusion partner. Clones were isolated by limiting dilution and selected by ELISA of hybridoma supernatants. Recombinant human TSG-6 (R&D Biosystems, catalog #2104-TS) was used as a substrate for ELISA assays thus facilitating the selection of human- and mouse-cross reactive clones (the two proteins are 92% identical at the amino acid level). Hybridoma mRNA was transcribed to cDNA and amplified by 5′-rapid amplification of cDNA ends (RACE). PCR products were cloned into an appropriate sequencing vector and sequenced by the dideoxy Sanger method. Multiple copies were sequenced to verify the clonality of each clone. Translated protein sequences were entered into the NCBI IgBLAST search tool (Ye, J., et al., 2013, Nucleic Acids Res. 41, W34-40) to identify CDRs.
row,Binder,binding result
1,B1,binds
2,B2,binds
3,B3,binds
4,B4,binds
5,B5,binds
6,B6,binds
7,B7,binds
8,B8,binds
9,B9,binds
10,B10,binds
11,B11,binds

# Target: T2, Recombinant human TSG-6 (R&D Biosystems, catalog #2104-TS) (human, UniProt P98066 18-277)
# T2 construct: Bought protein; also called hTSG-6; Tumor necrosis factor-inducible gene 6 protein
# T2 sequence (P98066 18-277 limits assumed): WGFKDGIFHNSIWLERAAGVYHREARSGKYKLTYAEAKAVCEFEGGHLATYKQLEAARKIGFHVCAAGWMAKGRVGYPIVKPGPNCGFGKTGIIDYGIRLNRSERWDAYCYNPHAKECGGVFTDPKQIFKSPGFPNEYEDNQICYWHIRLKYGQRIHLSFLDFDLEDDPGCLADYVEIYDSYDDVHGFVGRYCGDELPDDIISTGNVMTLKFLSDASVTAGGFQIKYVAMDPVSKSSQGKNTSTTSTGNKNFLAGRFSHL
# Test: ELISA of hybridoma supernatants on recombinant human TSG-6
# Protocol: as §1
row,Binder,binding result
1,B1,binds
2,B2,binds
3,B3,binds
4,B4,binds
5,B5,binds
6,B6,binds
7,B7,binds
8,B8,binds
9,B9,binds
10,B10,binds
11,B11,binds

# Reference: patent US20220153834A1 (UNIVERSITY HEALTH NETWORK, published 2022)
